Data on seven molecules can be found in patent publication US20240294604A1 (Stanford University, published 2024).

Broadly, the Kd is the concentration at which binding is half-saturated.

Changes are numbered by the printed parent chain.

In assay [1] the target is T1, A Proliferation Inducing Ligand (APRIL) (human, UniProt O75888 105-250).
T1 sequence: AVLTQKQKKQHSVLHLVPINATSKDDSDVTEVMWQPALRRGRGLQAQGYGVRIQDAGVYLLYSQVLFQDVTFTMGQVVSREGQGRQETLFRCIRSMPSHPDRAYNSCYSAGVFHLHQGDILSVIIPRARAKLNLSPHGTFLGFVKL
The assay is described as follows: cell binding titration by flow cytometry; soluble APRIL varied to 10 nM on cells displaying the BCMA clone; BP is not defined in the filing. On the technique in general: Flow cytometry measures light scatter and fluorescence of single cells or particles in a stream.

Assay [2] addresses T1, A Proliferation Inducing Ligand (APRIL). The assay is described as follows: cell binding titration by flow cytometry; soluble APRIL varied to 10 nM on cells displaying the BCMA clone.
For assay [3], the target named is BAFF. The assay is described as follows: cell binding titration by flow cytometry; soluble BAFF varied to 10 nM on cells displaying the BCMA clone.
The target of assay [4] is BAFF. The assay is described as follows: cell binding titration by flow cytometry; soluble BAFF varied to 10 nM on cells displaying the BCMA clone; B.P is not defined in the filing.
In assay [5] the target is BAFF. The assay is described as follows: cell binding titration by flow cytometry; soluble BAFF varied on cells displaying the BCMA clone.

Sequence of BAFF (soluble ligand, as listed by the source): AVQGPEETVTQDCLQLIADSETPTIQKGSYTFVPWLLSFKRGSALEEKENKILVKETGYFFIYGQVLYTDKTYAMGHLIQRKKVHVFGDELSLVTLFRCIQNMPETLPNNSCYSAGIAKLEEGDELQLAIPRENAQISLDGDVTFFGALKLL

B1: BCMA#75 (receptor)
variant BCMA extracellular domain: MLPMAGQCPQNEYFDSLLYACIPCQLRCSSSTPPLACQHYCNASVTRSVEGTNA
notes: also called Clone #75; clones #49, 75-94
B1 showed a BP in assay [1] of 441. Moreover, in assay [2], the Bmax was found to be 7060 A.U and the Kd was ~0.016 nM.

B2: BCMA#71 (receptor)
variant BCMA extracellular domain: MLQMAGQCSQNEYFDGLLYACIPCQLRCSSNTPPLACQRYCNASVTNSVKGTDA
notes: also called Clone #71; sBCMA variant clone 71
In the assay with BAFF [3], B2 gave a Bmax of 1230 A.U and a Kd of 0.009 nM. In addition, the BP in assay [1] came out at 1030. In the assay with BAFF [4], this molecule gave a B.P of 136. Besides, in assay [2], the Bmax was 8270 A.U and the Kd was 0.008 nM.

B3: BCMA#95 (receptor)
variant BCMA extracellular domain: B2 variant BCMA extracellular domain with M1V, L2S, M4T, N11D, G16S, D53N
notes: also called Clone #95
Consider B3, for which the BP in assay [1] is 258. In assay [2], this molecule showed a Bmax of 7230 A.U and a Kd of 0.028 nM.

B4: BCMA#73 (receptor)
variant BCMA extracellular domain: B2 variant BCMA extracellular domain with Y19H, D53N
notes: also called Clone #73; clone #22
Turning to B4, the binding result with BAFF [5] was “no binding”. Besides, in assay [1], the BP turned out to be 102. Moreover, in assay [2], the Bmax was found to be 5530 A.U and binding was put at a Kd of 0.054 nM.

B5: BCMA#74 (receptor)
variant BCMA extracellular domain: B2 variant BCMA extracellular domain with S9P, N11D, N47S
notes: also called Clone #74; sBCMA variant clone 74
As to B5, the values for the Bmax (with BAFF [3]; in assay [2]) were 1680 A.U and 9200 A.U, respectively. The figures for the Kd (in the assay with BAFF [3]; in assay [2]) were 0.009 nM and 0.007 nM, respectively. Further, the BP in assay [1] is 1310. In addition, in the assay with BAFF [4], the B.P stood at 186.

B6: BCMA#72 (receptor)
variant BCMA extracellular domain: B2 variant BCMA extracellular domain with D53N
notes: also called Clone #72; sBCMA variant clone 72
Regarding B6, in the assay with BAFF [3], the Bmax was 974 A.U and the affinity, expressed as Kd, was 0.008 nM. In addition, in assay [1], the BP came out at 325. Besides, the B.P in the assay with BAFF [4] is 121. Also, in assay [2], the Bmax came to 5860 A.U and the Kd is 0.018 nM.

B7: BCMA#106 (receptor)
variant BCMA extracellular domain: VSQTAGQCSQNEYFDGLLHACIPCQLRCSSDIPPLACQRYCNASVTNSVKGTNA
notes: also called Clone #106; clones #106-111
Consider B7, for which, in the assay with BAFF [3], the Bmax came out at 870 A.U and binding was put at a Kd of 0.028 nM. Also, in assay [1], the BP is 527. Further, in assay [2], the Bmax is 7910 A.U and the Kd was determined as 0.015 nM.
